Source: patent US20230322924A1 (Janssen / Centocor, published 2023)
Changes are numbered by the printed parent chain. In names and notes the source's numbering stands. One block for each binder: values may come before it.

What was measured:
Human CD33 ECD-HSA [1] = molecular target: T1, Human CD33 ECD-HSA (human); assay: SPRi off-rate screen (IBIS MX96)
T1 construct: CD33 ECD fused at the C-terminus to monomeric HSA (C58S) and a six-histidine tag; also called C33W2; huCD33 ECD-HSA

Human CD33-C2-HSA = molecular target: T2, Human CD33-C2-HSA (human); assay: SPRi off-rate screen (IBIS MX96)
T2 construct: C2 domain of human CD33 fused to HSA; also called C33W4; huCD33-C2-HSA

Cyno CD33 full length = molecular target: T3, Cyno CD33 full length (cynomolgus monkey); assay: flow cytometry on HEK293F cells expressing cyno CD33
T3 construct: also called cyCD33

Human CD33 full length = molecular target: T4, Human CD33 full length (human, UniProt P20138 18-364); assay: flow cytometry on HEK293F cells expressing human CD33
T4 construct: also called huCD33
T4 sequence (P20138 18-364 limits assumed): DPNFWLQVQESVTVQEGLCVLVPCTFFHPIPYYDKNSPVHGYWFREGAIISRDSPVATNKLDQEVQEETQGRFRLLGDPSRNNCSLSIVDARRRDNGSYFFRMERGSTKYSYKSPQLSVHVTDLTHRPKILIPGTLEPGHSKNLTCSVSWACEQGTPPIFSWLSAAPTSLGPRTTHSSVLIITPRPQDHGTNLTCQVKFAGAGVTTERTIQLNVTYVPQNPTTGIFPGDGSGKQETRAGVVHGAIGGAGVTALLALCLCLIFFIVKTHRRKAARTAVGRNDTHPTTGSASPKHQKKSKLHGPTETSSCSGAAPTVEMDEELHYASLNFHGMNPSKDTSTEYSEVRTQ

Human CD33 ECD-HSA [2] = molecular target: T1, Human CD33 ECD-HSA; assay: ProteOn SPR, mAb captured on anti-human Fc, antigen as analyte
Procedure: (§1) The panel of mAbs was then further characterized for full affinity analysis as well as epitope binning. The binding of anti-CD33 mAbs to recombinant human CD33 ECD-HSA (C33W2) and cyno CD33 ECD-HSA (C33W1) was measured by ProteOn SPR (Bio-Rad). […] Different mAbs were captured on the anti-human Fc IgG surface at 0.25 or 0.5 μg/ml (160-300 RU) in vertical ligand orientation, with the 6th ligand channel as no ligand surface control. Human and cyno CD33-HSA proteins at 0.3 μM concentration in 3-fold dilution series of 5 concentrations flew in as analyte to bind to captured mAbs in the horizontal orientation. A buffer sample was also injected in the 6th channel to monitor the dissociation of captured mAb and baseline stability. […] The raw biding data were processed by double referencing after subtracting the response data from: 1) the inter-spot to correct for the non-specific interactions between the Ag and the empty chip surface; 2) the buffer channel to correct for baseline drifting due to the dissociation of captured mAb surface over time. The processed data at all antigen concentrations for each mAb were globally fit to a 1:1 simple Langmuir binding model to extract estimates of the kinetic (kₒₙ, koff) and affinity (Kd) constants.

Cyno CD33 ECD-HSA = molecular target: T5, Cyno CD33 ECD-HSA (cynomolgus monkey); assay: as above
T5 construct: Cyno CD33 ECD fused to HSA and a six-histidine tag; also called C33W1
Procedure: as §1

[3] = molecular target: T6, human TMEFF2 extracellular domain (ECD) (human, UniProt Q9UIK5 41-320); assay: KinExA solution equilibrium affinity
T6 construct: also called TMEFF2-ECD
T6 sequence: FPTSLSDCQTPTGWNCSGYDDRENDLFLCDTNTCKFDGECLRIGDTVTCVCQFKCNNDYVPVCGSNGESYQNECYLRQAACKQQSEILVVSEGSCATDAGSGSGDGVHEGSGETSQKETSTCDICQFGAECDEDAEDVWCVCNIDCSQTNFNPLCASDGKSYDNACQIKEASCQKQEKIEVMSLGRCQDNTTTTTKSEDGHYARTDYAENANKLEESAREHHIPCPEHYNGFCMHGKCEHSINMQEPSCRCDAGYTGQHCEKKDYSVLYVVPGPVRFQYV
Procedure: Serial dilutions of human TMEFF2 extracellular domain (ECD) were prepared with a constant concentration of anti-TMEFF2 mAb in 10 mM HEPES, 150 mM NaCL, 0.05% surfactant P20, pH 7.4, 0.1% BSA, and 0.02% NaN3. The reaction mixtures were incubated at RT until the binding interactions reached equilibrium. The duration of the incubation was determined using KinExA software simulation. Beads were prepared by direct covalent immobilization of TMEFF2-ECD by amine-coupling on pre-activated beads composed of bis-acrylamide/azlactone copolymer (Pierce Biotechnology, Inc.). After incubation the samples were run on the KinExA instrument to assess free antibody in the mixture by passing the mixture though the TMEFF2-modified beads, and detecting the captured antibody using a fluorescently labeled secondary antibody. The data was fit with a 1:1 binding model using the KinExA Pro software.

[4] = molecular target: T7, TMEW1 (TMEFF2-FL-ECD-His-Avitag) (human, UniProt Q9UIK5 41-320); assay: Biacore 8K SPR, mAb captured on anti-human Fc, single cycle kinetics
T7 construct: Human TMEFF2 ECD with C-terminal G3S, 6xHis tag and Avi-tag, all in the entry; also called TMEFF2 ECD
T7 sequence: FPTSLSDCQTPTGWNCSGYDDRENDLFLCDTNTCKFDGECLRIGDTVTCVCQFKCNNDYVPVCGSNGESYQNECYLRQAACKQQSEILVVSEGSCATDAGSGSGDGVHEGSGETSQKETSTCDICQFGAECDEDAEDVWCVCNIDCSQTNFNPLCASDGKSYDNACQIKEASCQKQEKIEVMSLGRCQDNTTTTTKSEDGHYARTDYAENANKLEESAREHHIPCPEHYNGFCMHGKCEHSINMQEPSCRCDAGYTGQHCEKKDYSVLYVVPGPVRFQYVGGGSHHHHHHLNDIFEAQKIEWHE
Procedure: The binding of anti-TMEFF2 mAbs to human TMEFF2 ECD was measured by Biacore 8K SPR. The format of the assay was to capture the mAbs using a high density anti-human Fc surface, then inject human TMEFF2 concentration titration using a single cycle kinetics method. […] The mAbs were captured on the anti-human Fc IgG surface at 0.5 μg/ml (˜200-300 RU) on flow cell 2. The running buffer was then changed to HBSP+100 ug/ml BSA. TMEFF2 ECD at 30 nM concentration in 3-fold dilution series was injected from low to high concentration using single cycle kinetics method. The off-rate was monitored 30 minutes after the last or highest concentration injection and then the surface was regenerated using 0.8% phosphoric acid (Bio-Rad). A buffer blank run, capturing the same mAbs and using the same conditions of sample run was also completed. The raw data were processed by subtracting two sets of reference data from the response data: 1) reference flow cell 1 subtracted from sample flow cell 2 and 2) buffer blank run from experimental run. The processed data at all concentrations for each mAb were globally fit to a 1:1 simple Langmuir binding model to extract estimates of the kinetic (kon, koff) and affinity (KD) constants.

B-Defensin-3 = molecular target: T8, B-Defensin-3; assay: Biacore 8K non-specific binding test, antibody over immobilised protein
T8 construct: also called β-defensin
T8 sequence (P81534 23-67): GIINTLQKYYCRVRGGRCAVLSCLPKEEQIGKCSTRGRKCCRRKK
Procedure: (§2) Non-specific binding of the lead molecule to unrelated surfaces is determined by biosensor technology (Biacore 8K). Antibody is passed over SPR surfaces coated with unrelated proteins. […] Irrelevant surfaces include negatively charged protein (Soy Trypsin Inhibitor), positively charged protein (Lysozyme and β-defensin), hydrophobic (Rh-integrin a4b7), human IgG, sticky protein (Rh-CD19). Proper controls are used in this experiment. Lead is flown over two surfaces, one is a blank and the other has a molecule directly immobilized. The response unit (RU) level is determined by subtracting the blank RU from the test surface RU. […] A response unit ≥100 predicts high risks for non-specific binding to charged/hydrophobic/IgG surfaces which would create challenges during manufacturing and translate to poor PK properties.

Human IgG = assay: as above
Procedure: as §2

Lysozyme = assay: as above
Lysozyme, sequence (P00698 19-147): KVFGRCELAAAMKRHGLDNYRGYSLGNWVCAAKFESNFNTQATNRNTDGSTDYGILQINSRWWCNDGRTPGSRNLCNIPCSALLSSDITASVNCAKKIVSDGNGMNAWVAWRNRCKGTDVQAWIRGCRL
Procedure: as §2

rh-Integrin a4b7 [5] = molecular target: rh-Integrin a4b7 (UniProt P13612 34-977; P26010 20-723, limits assumed); assay: as above
Procedure: as §2

rh-CD19 [6] = molecular target: T9, rh-CD19 (UniProt P15391 20-291, limits assumed); assay: as above
T9 sequence (looked up): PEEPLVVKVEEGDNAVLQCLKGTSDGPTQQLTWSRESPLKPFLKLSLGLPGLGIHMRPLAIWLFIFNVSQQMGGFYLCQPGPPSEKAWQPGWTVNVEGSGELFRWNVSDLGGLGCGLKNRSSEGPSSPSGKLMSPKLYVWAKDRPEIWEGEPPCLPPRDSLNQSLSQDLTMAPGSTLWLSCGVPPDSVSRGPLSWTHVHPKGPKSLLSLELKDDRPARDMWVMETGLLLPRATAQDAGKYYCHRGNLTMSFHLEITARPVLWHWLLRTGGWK
Procedure: as §2

Rh-integrin a4b7 [7] = molecular target: T10, Rh-integrin a4b7 (UniProt P13612 34-977; P26010 20-723, limits assumed); assay: Biacore 8K SPR, antibody over immobilised protein
T10 construct: rh read as recombinant human
Procedure: as §2

Rh-CD19 [8] = molecular target: T11, Rh-CD19 (UniProt P15391 20-291, limits assumed); assay: Biacore 8K SPR, antibody over immobilised protein
T11 construct: rh read as recombinant human
T11 sequence (looked up): T9 sequence (looked up)
Procedure: as §2

[9] = molecular target: T12, human CD3 on human T cells (human, UniProt P07766 23-207); assay: competition with AF488 SP-34 tracer on human pan T cells, flow cytometry
T12 construct: Native TCR-CD3 complex on cells; also called primary human T cells; human pan T cells
T12 sequence (P07766 23-207 limits assumed): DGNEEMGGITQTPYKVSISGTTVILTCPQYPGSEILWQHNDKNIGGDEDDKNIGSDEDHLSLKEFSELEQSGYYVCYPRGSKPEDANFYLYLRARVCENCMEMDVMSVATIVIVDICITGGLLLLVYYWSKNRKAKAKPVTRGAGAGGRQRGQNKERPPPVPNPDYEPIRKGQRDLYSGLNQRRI
Procedure: (§3) The mixture was added to the T cells for 2 hours at 4° C. Cells were then washed to remove un-bound antibody, fixed for 15 minutes, washed, and re-suspended in FACS Staining buffer containing 1 mM EDTA.
(§4) The iQue Intellicyte Flow Cytometer was used to measure binding. Cells were gated for T-cell population, followed by cell singlets, followed by Live Cells (FL4). Geometric mean of staining (FL1) was determined for each well. The acquired mean fluorescence intensity values were plotted as a function of the log antibody molecule concentration (converted to nM) and analyzed using Prism software in a sigmoidal dose-response (variable slope) from which the EC50/IC50 values (in nM) are derived. The binding affinity (Kd) was derived using the following formula: Kd=IC50/(1+([T]/KdT)).

[10] = molecular target: T12, human CD3 on human T cells; assay: Kd = IC50/(1+[T]/KdT) from competition with AF488 SP-34 on human pan T cells
Procedure: as §3, §4

koff (Human CD33 ECD-HSA [1]): 1.29e-05 s⁻¹
koff (Human CD33-C2-HSA): 6.68e-05 s⁻¹
MFI at 0 nM (background) (Cyno CD33 full length): 125 MFI
MFI at 0.6 nM (Cyno CD33 full length): 1730 MFI
MFI at 6 nM (Cyno CD33 full length): 7270 MFI
MFI at 60 nM (Cyno CD33 full length): 15100 MFI
MFI at 0 nM (background) (Human CD33 full length): 150 MFI
MFI at 0.6 nM (Human CD33 full length): 15700 MFI
MFI at 6 nM (Human CD33 full length): 101000 MFI
MFI at 60 nM (Human CD33 full length): 237000 MFI
Kd (Human CD33 ECD-HSA [2]): 0.0302 nM
koff (Human CD33 ECD-HSA [2]): 4.29e-05 s⁻¹
kon (Human CD33 ECD-HSA [2]): 1.42e+06 M⁻¹ s⁻¹
Kd (Cyno CD33 ECD-HSA): 0.433 nM
koff (Cyno CD33 ECD-HSA): 0.00065 s⁻¹
kon (Cyno CD33 ECD-HSA): 1.5e+06 M⁻¹ s⁻¹
B1: C33B912 (antibody, V domains shown)
VH: EVQLVESGGGLVQPGRSLRLSCAASGFTFDDYAMHWVRQAPGKGLEWVSGIGWSGGSIVYADSVKGRFTISRDNAKNSLYLQMNSLRAEDTALYYCAKDSPYGDFFDYWGQGTLVTVSS
VL: DIVMTQSPDSLAVSLGERATINCKSSQTVFYSSNNKNYLAWYQQKPGQPPKLLISWASTRKSGVPDRFSGSGSGTDFTLTVSSLQAEDVAVYYCQHYYSTPYTFGQGTKLEIK
notes: OMNIMouse-derived anti-CD33 mAb; also called C33H252/C33L118; C33F550

koff (Human CD33 ECD-HSA [1]): 4.72e-05 s⁻¹
koff (Human CD33-C2-HSA): 0.00257 s⁻¹
B2: C33B778 (antibody, IgG4, V domains shown)
VH: QVQLVESGGGVVQPGRSLRLSCVASGFTFSSYGMHWVRQAPGKGLEWVAVISYDGSNKYYADSVKGRFTISRDNSKNTLYLQMNSLRAEGTAVYYCAKDFRSFDWLPPDSASYHGMDVWGQGTTVTVSS
VL: SYELTQPPSVSVSPGQTASITCSGDKLGDKYACWYQQKPGQSPVLVIYQDGKRPSGIPERFSGSNFGNKATLTISGTQAMDEADYYCQAWDRNTVVFGGGTKLTVL
notes: also called C33H66/C33L60; C33F78

Kd [3]: 0.0461 nM
Kd [4]: 0.32 nM
koff [4]: 0.000174 s⁻¹
kon [4]: 541000 M⁻¹ s⁻¹
response units (RU) (B-Defensin-3): 4.1 RU
response units (RU) (Human IgG): 8.4 RU
response units (RU) (Lysozyme): 4.6 RU
response units (RU) (rh-Integrin a4b7 [5]): 0 RU
response units (RU) (rh-CD19 [6]): 3.3 RU
B3: TMEB762 (antibody, human IgG4 S228P, kappa, F234A L235A, V domains shown)
VH: EVQLLESGGGLVQPGGSLRLSCAASGFTFSSYSMSWVRQAPGKGLEWVSVISGSGGFTDYADSVKGRFTISRDNSKNTLYLQMNSLRAEDTAVYYCARMPLNSPHDYWGQGTLVTVSS
VL: DIQMTQSPSSLSASVGDRVTITCRASQGIRNDLGWYQQKPGKAPKLLIYAASSLQSGVPSRFSGSGSGTDFTLTISSLQPEDFATYYCLQDYNYPLTFGGGTKVEIKR
notes: IgG4 PAA anti-TMEFF2; re-engineered variant of TMEB675; also called TMEH459/DL3L129

IC50 [9]: 29 nM
Kd [10]: 7.3 nM
B4: CD3B376 (antibody, human IgG4 S228P, lambda, F234A L235A, V domains shown)
VH: QVQLQQSGPRLVRPSQTLSLTCAISGDSVFNNNAAWSWIRQSPSRGLEWLGRTYYRSKWLYDYAVSVKSRITVNPDTSRNQFTLQLNSVTPEDTALYYCARGYSSSFDYWGQGTLVTVSS
VL: QSALTQPASVSGSPGQSITISCTGTSSNIGTYKFVSWYQQHPDKAPKVLLYEVSKRPSGVSSRFSGSKSGNTASLTISGLQAEDQADYHCVSYAGSGTLLFGGGTKLTVLG
notes: IgG4 PAA (S228P, F234A, L235A); LC is CD3L124 with C91V; also called CD3H219/CD3L150; bivalent CD3B376
binding result (Rh-integrin a4b7 [7]): no binding (tested: response unit ≥100 predicts high risks)
binding result (Rh-CD19 [8]): no binding (tested: response unit ≥100 predicts high risks)

IC50 [9]: 60 nM
Kd [10]: 15 nM
B5: CD3B450 (antibody, human IgG4 S228P, lambda, F234A L235A, V domains shown)
VH: B4 VH with R10G, R13K, V73I, R79K, T83S, L96V
VL: B4 VL with D43G, L49M, L50I, S62N, Q85E, H89Y
notes: IgG4 PAA; also called CD3H231/CD3L197; bivalent CD3B450
